Laboratory results reported in publication PMC8147241, “Trimerization of the N-Terminal Tail of Zika Virus NS4A Protein: A Potential In Vitro Antiviral Screening Assay” (Membranes, 2021).

B1: full-length ZIKV NS4A protein (1–127) (natural protein)
chain: GAALGVMEALGTLPGHMTERFQEAIDNLAVLMRAETGSRPYKAAAAQLPETLETIMLLGLLGTVSLGIFFVLMRNKGIGKMGFGMVTLGASAWLMWLSEIEPARIACVLIVVFLLLVVLIPEPEKQR
notes: Zika virus NS4A protein, strain MR-766, full length, residues 1-127 of NS4A; numbers count on: the mature NS4A protein (127 residues); Vector pNIC28-Bsa4; a TEV protease cleavage site stands between the His6 tag and the protein; No cleavage is described; also called full-length NS4A; source: E. coli BL21 (DE3) Rosetta T1R, purified (Ni-charged IMAC and SEC in 4 mM n-decyl-β-D-maltoside)

How the values were obtained:
[1] = target: ZIKV NS4A N-terminal peptide (4–58) (Zika virus (strain MR-766)); experiment: static light scattering; Debye plot of KC/Rθ against protein concentration, Zetasizer Nano-ZS, 25 °C; aqueous solution without detergents or liposomes; n = 5 independent samples per concentration
[2] = target: the molecule itself; experiment: SEC; Superdex 200 Increase 10/300 GL, 20 mM Tris-HCl, 300 mM NaCl, pH 8, with 4 mM n-decyl-β-D-maltoside

Row | Molecule | stoichiometry N [1] | binding result [2]
1 | ZIKV NS4A N-terminal peptide (4–58) (domain or fragment) | 3 | –
2 | B1 | – | binds
